Source: patent US7244431B2, “Allergy vaccines and their preparation” (priority 2000, dated 2007)

Tests used:
[1] = tested on: basophilic granulocytes of birch pollen allergic individuals; assay: Basophil histamine-release assay; format: cell-based, human; details: 10^−3-10 μg/ml
Procedure: Granulocytes were isolated from heparinized blood samples of 3 birch pollen allergic individuals by dextran sedimentation (Valent, P. et al. (1989) Interleukin 3 activates human blood basophils via high-affinity binding sites. Proc. Natl. Sci. USA 86, 5542-5547). […] Histamine released in the cell-free culture supernatant was measured by radioimmunoassay (Immunotech, Marseille, France). Total histamine was determined after freezing and thawing of cells.

[2] = tested on: birch pollen allergic patients; assay: Skin prick testing of allergic patients; format: in vivo, human
Procedure: SPTs were performed on the individuals forearms as described ([…]. et al. (1997) J. Clin Invest. 99, 1673-168; Dreborg S: (1989) J. Am. Acad. DerMatol. 21, 820-821). […] In addition standardized skin prick solutions (birch pollen extract and histamine) (Allergopharma, Reinbek, Germany) were tested. Reactions were recorded 20 minutes after SPT by photography and by transferring the ballpoint pen-surrounded wheal area with a scotch tape to paper.

[3] = tested on: IgE antibodies in sera from birch pollen allergic patients; assay: ELISA detection of peptide- and rBet v 1-specific IgE antibodies; format: binding, human
In short: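 Sera from 60 birch pollen allergic patients (rhinoconjunctivitis and/or asthma; skin prick and CAP RAST characterized) plus one non-atopic individual, diluted 1:3, incubated overnight at 4 °C on coated plates. Bound IgE detected with 1:1000 alkaline-phosphatase-coupled mouse anti-human IgE.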

[4] = all 60 birch pollen allergic patients

B1: rBet v 1: purified recombinant Bet v 1, major birch pollen allergen, purchased from BIOMAY (protein)
chain: GVFNYETETTSVIPAARLFKAFILDGDNLFPKVAPQAISSVENIEGNGGPGTIKKISFPEGFPFKYVKDRVDEVDHTNFKYNYSVIEGGPIGDTLEKISNEIKIVATPDGGSILKISNKYHTKGDHEVKAEQVKASKEMGETLLRAVESYLLAHSDAYN
- induction of histamine release [1]: dose-dependent release of histamine
- concentration inducing immediate type skin reactions in three patients (#1-3) ([2]; human, in vivo): < 0.78 µg/mL
- concentration sufficient to induce wheal reactions in all five birch pollen allergic patients ([2]; human, in vivo): 3.12 µg/mL
- mean wheal diameter ([2]; individual 1, rBet v 1 0.39 μg/ml): 2.5 mm
- mean wheal diameter ([2]; individual 1, rBet v 1 0.78 μg/ml): 4 mm
- mean wheal diameter ([2]; individual 1, rBet v 1 1.56 μg/ml): 4.5 mm
- mean wheal diameter ([2]; individual 1, rBet v 1 3.12 μg/ml): 5 mm
- mean wheal diameter ([2]; individual 1, rBet v 1 6.25 μg/ml): 6 mm
- mean wheal diameter ([2]; individual 1, rBet v 1 12.5 μg/ml): 13 mm
- mean wheal diameter ([2]; individual 2, rBet v 1 0.39 μg/ml): 2 mm
- mean wheal diameter ([2]; individual 2, rBet v 1 0.78 μg/ml): 3.5 mm
- mean wheal diameter ([2]; individual 2, rBet v 1 1.56 μg/ml): 5 mm
- mean wheal diameter ([2]; individual 2, rBet v 1 3.12 μg/ml): 5.5 mm
- mean wheal diameter ([2]; individual 2, rBet v 1 6.25 μg/ml): 7 mm
- mean wheal diameter ([2]; individual 2, rBet v 1 12.5 μg/ml): 7.5 mm
- mean wheal diameter ([2]; individual 2, rBet v 1 25 μg/ml): 8 mm
- mean wheal diameter ([2]; individual 3, rBet v 1 0.78 μg/ml): 2 mm
- mean wheal diameter ([2]; individual 3, rBet v 1 1.56 μg/ml): 3 mm
- mean wheal diameter ([2]; individual 3, rBet v 1 3.12 μg/ml): 4 mm
- mean wheal diameter ([2]; individual 3, rBet v 1 6.25 μg/ml): 6 mm
- mean wheal diameter ([2]; individual 3, rBet v 1 12.5 μg/ml): 6.5 mm
- mean wheal diameter ([2]; individual 3, rBet v 1 25 μg/ml): 8 mm
- mean wheal diameter ([2]; individual 4, rBet v 1 3.12 μg/ml): 2 mm
- mean wheal diameter ([2]; individual 4, rBet v 1 6.25 μg/ml): 3 mm
- mean wheal diameter ([2]; individual 4, rBet v 1 12.5 μg/ml): 4 mm
- mean wheal diameter ([2]; individual 4, rBet v 1 25 μg/ml): 4.5 mm
- mean wheal diameter ([2]; individual 5, rBet v 1 1.56 μg/ml): 2 mm
- mean wheal diameter ([2]; individual 5, rBet v 1 3.12 μg/ml): 2.5 mm
- mean wheal diameter ([2]; individual 5, rBet v 1 6.25 μg/ml): 4 mm
- mean wheal diameter ([2]; individual 5, rBet v 1 12.5 μg/ml): 11 mm
- mean wheal diameter ([2]; individual 5, rBet v 1 25 μg/ml): 5 mm
- rBet v1-specific IgE antibodies, mean [3, 4]: 1.416 OD units
- rBet v1-specific IgE antibodies, range [3, 4]: 0.081-2.530 OD units
- IgE (OD) ([3]; serum of NHS, non-allergic control individual): 0.048 OD
- IgE (OD) ([3]; serum of patient 1): 0.829 OD
- IgE (OD) ([3]; serum of patient 2): 1.380 OD
- IgE (OD) ([3]; serum of patient 3): 2.144 OD
- IgE (OD) ([3]; serum of patient 4): 0.701 OD
- IgE (OD) ([3]; serum of patient 5): 0.344 OD
- IgE (OD) ([3]; serum of patient 6): 2.300 OD
- IgE (OD) ([3]; serum of patient 7): 2.245 OD
- IgE (OD) ([3]; serum of patient 9): 0.196 OD
- IgE (OD) ([3]; serum of patient 10): 0.097 OD
- IgE (OD) ([3]; serum of patient 11): 0.428 OD
- IgE (OD) ([3]; serum of patient 12): 0.271 OD
- IgE (OD) ([3]; serum of patient 13): 0.281 OD
- IgE (OD) ([3]; serum of patient 14): 0.704 OD
- IgE (OD) ([3]; serum of patient 20): 0.249 OD
- IgE (OD) ([3]; serum of patient 21): 0.461 OD
- IgE (OD) ([3]; serum of patient 22): 0.258 OD
- IgE (OD) ([3]; serum of patient 23): 1.555 OD
- IgE (OD) ([3]; serum of patient 25): 0.5 OD
- IgE (OD) ([3]; serum of patient 26): 0.191 OD
- IgE (OD) ([3]; serum of patient 27): 0.535 OD
- IgE (OD) ([3]; serum of patient 28): 0.492 OD
- IgE (OD) ([3]; serum of patient 29): 0.154 OD
- IgE (OD) ([3]; serum of patient 30): 0.081 OD
- IgE (OD) ([3]; serum of patient 32): 0.195 OD
- IgE (OD) ([3]; serum of patient 33): 0.106 OD
- IgE (OD) ([3]; serum of patient 34): 0.377 OD
- IgE (OD) ([3]; serum of patient 36): 0.306 OD
- IgE (OD) ([3]; serum of patient 38): 1.571 OD
- IgE (OD) ([3]; serum of patient 40): 0.084 OD
- IgE (OD) ([3]; serum of patient 43): 0.363 OD
- IgE (OD) ([3]; serum of patient 44): 2.386 OD
- IgE (OD) ([3]; serum of patient 45): 0.289 OD
- IgE (OD) ([3]; serum of patient 47): 0.381 OD
- IgE (OD) ([3]; serum of patient 48): 1.422 OD
- IgE (OD) ([3]; serum of patient 49): 0.379 OD
- IgE (OD) ([3]; serum of patient 51): 0.307 OD
- IgE (OD) ([3]; serum of patient 54): 1.310 OD
- IgE (OD) ([3]; serum of patient 55): 2.489 OD
- IgE (OD) ([3]; serum of patient 56): 2.530 OD
- IgE (OD) ([3]; serum of patient 57): 0.741 OD
- IgE (OD) ([3]; serum of patient 58): 0.072 OD
- IgE (OD) ([3]; serum of patient 59): 0.168 OD
